Experimental data taken from patent publication US20100196361A1, “Method of inhibition of vascular development using an antibody” (DYAX CORP., priority 2003, published 2010).

Experiments:
Tie1 [1] = target: T1, Tie1 (Homo sapiens, UniProt P35590); experiment: Immunoprecipitation of Tie1 from HUVEC and platelet lysates; assay type: binding; conditions: for immunoprecipitation of Tie1 from platelets: activated and inactivated platelets
Protocol: The conclusion from this study was that platelets represent a large pool of Tie1 immunoreactivity which could present a problem for development of Tie1 as a therapeutic target. […] Both activated and inactivated platelets were tested. Anti-Tie1 antibodies B2, D11, E3, the goat polyclonal AF619 (R&D) and negative control antibodies anti-FITC and anti-Streptavidin were used. HUVECS were retrieved from culture dishes by trypsinization and platelets were prepared with the platelet GelSep kit (Biocytex, Marseille, France) kit according to the guidelines of the manufacturer. Per immunoprecipitation experiment 3-5×10^6 and 3×10^8 cells platelets were used for each antibody tested. Platelets and cells were washed with PBS and spun down at 1400 rpm for 4 minutes and supernatant was removed. Then cells were lysed in 1 ml lysis buffer containing 50 mM Tris HCL pH 7.5, 150 mM NaCl, 0.5% Deoxycholic acid (DOC) and 0.5% NP-40 for 5 minutes. The lysed cells were spin down for 10 minutes at 14.000 rpm and 5 μg/ml antibody was added to the supernatant and incubated at 4° C. on a rotator. 100 μl/sample protein A beads (Uppsala, Sweden) were washed 3 times with lysis buffer (centrifugation speed: 15 seconds, 2000 rpm) then cell lysates incubated with antibody were added for 30 minutes 4° C. Then beads were washed three times with washing buffer containing 50 mM Tris HCL pH 7.5, 400 mM NaCl, 0.5% DOC, 0.5% NP-40. Finally, beads are spun down and the pellets was resuspended in an equal amount in sample buffer to perform SDS-page and Western blotting. In Western blotting Tie1 was detected with the polyclonal goat anti-Tie1 antibody.
It has been reported that Tie1 is expressed on platelets (Tsiamis et al. (2000) J. Vasc. Res. 37(6):437). The possibility of platelet immunoreactivity with the E3 anti-Tie1 antibody was investigated by FACs analysis and immunoprecipitation studies. […] In addition, the effect of DX-2200 and DX-2210 on platelet agglutination and aggregation was investigated. […]

Tie1 [2] = target: T1, Tie1; experiment: Tie1 phosphorylation assay; assay type: cell-based; set-up: an expression vector containing a V5-tagged full length Tie1 cDNA; expressed in transfected cells; host or cells: COS1
Protocol: Tie1 phosphorylation assay. COS1 cells were transfected with pcDNA3-Tie1-V5. After 24 h of transfection, the cells were serum starved for 8 h and then treated with E3 IgG. For the Tie1 phosphorylation assay, HDMVECs were cultured on 10 cm dishes to near confluence, starved (8-16 h) in serum free medium and stimulated as indicated. After the stimulations, the cells were lysed in lysis buffer (RIPA-DOC: 50 mM Tris-HCl pH 8.0, 150 mM NaCl, 1% Triton-X-100, 0.1% SDS, 0.5% DOC, 10 mM EDTA, supplemented with aprotinin, leupeptin, PMSF and sodium vanadate). Clarified lysates from transfected COS 1 cells or HDMVECs were immunoprecipitated with anti-V5 or anti-Tie1 B9, respectively. Proteins were separated by SDS-PAGE, transferred to nitrocellulose and immunoblotted using the anti-phosphotyrosine and anti-Tie1 (R&D systems) antibodies.
To test if the E3 IgG binding to the extracellular region of Tie1 induces autophosphorylation of Tie1, the Tie1 receptor phosphorylation level in response to E3 IgG treatment was studied in transiently transfected COS 1 cells and human primary endothelial cells. COS 1 cells were transfected with an expression vector containing a V5-tagged full length Tie1 cDNA, and, after serum starvation, the cells were treated with E3 IgG (200 ng/ml). Cell lysates were extracted at several time points and Tie1 was immunoprecipitated with anti-V5 followed by western blotting using anti-phosphotyrosine and anti-Tie1 antibodies. […] To determine if E3 IgG induces Tie1 phosphorylation in primary endothelial cells, HDMVEC cells were serum starved and stimulated with several concentrations of E3 for 60 min. […] Also higher concentrations of E3 (500-1000 ng/ml) induced Tie1 phosphorylation but the response was more rapid and was most prominent after 5 min of stimulation.
To study the kinetics of E3 IgG induced Tie1 activation, cells were stimulated with E3 IgG (200 ng/ml) and receptor phosphorylation was studied at various time points. Tie1 phosphorylation was highest 15-30 min after E3 IgG treatment but phosphorylation persisted for up to 1 h.

[3] = system: LEII lung mouse endothelial cell line; experiment: Tube formation by mouse endothelial cell line LEII on […]; assay type: cell-based; conditions: LEII cells on MATRIGEL, 16 to 18 hours
Protocol: In order to assess mouse Tie1 cross-reactivity and biological activity on mouse Tie1, both E3 and germlined E3 were evaluated for their ability to inhibit tube formation in vitro using mouse endothelial cell line (LEII).
LEII lung mouse endothelial cell line (ATCC) was cultured in a T-25 flask in MEM medium with GLUTAMAX™ (Life Technologies Ltd., Paisley, Scotland) supplemented with 10% FCS, and 1% penicillin/streptomycin. During culturing, the cells were kept in a proliferative state by culturing them in a split ratio 1:5 at an approximate density of the monolayer of about 80%. LEII monolayers were treated with trypsin/EDTA (500 μl/dish) at 37° C. for 3 min. Trypsin activity was stopped by adding 3 volumes of complete MEM medium. The cells were carefully scraped, separated by repeated pipetting, and finally washed with PBS.LEII cells were seeded in their culture medium (20-40×103/50 μl/well of a 96-well plate) on a basement membrane (BIOCOAT™ Angiogenesis System; Becton Dickinson). […] The total length of the tube network was then quantified at 40× magnification by the METAVUE™ Software (Universal Imaging Corporation). Results from triplicate wells were expressed as mean vessel area per field ±SEM (relative units). […]

T1 sequence (P35590 22-1138): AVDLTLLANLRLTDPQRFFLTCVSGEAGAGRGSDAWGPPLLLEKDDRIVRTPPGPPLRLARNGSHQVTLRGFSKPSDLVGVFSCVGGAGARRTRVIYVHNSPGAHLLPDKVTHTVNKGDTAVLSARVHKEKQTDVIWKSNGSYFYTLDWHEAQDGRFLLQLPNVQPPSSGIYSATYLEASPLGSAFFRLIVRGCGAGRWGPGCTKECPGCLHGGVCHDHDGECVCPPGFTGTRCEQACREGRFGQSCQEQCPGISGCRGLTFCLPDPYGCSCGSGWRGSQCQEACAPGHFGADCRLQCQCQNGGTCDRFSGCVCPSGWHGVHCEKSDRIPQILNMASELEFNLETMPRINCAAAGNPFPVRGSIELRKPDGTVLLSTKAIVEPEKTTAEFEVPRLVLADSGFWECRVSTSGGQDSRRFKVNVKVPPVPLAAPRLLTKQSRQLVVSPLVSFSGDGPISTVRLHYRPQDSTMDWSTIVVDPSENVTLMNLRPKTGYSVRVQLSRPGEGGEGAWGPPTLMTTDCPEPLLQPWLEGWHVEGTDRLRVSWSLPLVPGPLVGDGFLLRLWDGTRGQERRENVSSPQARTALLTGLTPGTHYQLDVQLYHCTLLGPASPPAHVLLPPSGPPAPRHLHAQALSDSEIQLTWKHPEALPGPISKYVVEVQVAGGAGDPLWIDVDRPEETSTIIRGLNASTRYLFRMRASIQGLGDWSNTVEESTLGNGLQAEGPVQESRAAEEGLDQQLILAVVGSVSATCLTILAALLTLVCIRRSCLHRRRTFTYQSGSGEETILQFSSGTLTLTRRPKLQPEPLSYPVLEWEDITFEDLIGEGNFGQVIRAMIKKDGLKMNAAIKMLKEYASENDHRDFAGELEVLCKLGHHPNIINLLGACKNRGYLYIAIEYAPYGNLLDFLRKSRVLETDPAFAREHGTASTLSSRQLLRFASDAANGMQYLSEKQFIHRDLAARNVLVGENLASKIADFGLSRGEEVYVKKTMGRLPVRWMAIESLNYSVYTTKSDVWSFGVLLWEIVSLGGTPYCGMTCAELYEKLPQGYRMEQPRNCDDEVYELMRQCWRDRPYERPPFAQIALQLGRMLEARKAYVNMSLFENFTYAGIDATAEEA

Molecule | immunoprecipitation of Tie1 from HUVEC (Tie1 [1]; 5 μg/ml antibody, detection with polyclonal goat anti-Tie1) | immunoprecipitation of Tie1 from platelets (Tie1 [1]) | immunoprecipitation of Tie1 from platelets (Tie1 [1]; listed as DX-2200) | persistence of Tie1 phosphorylation (Tie1 [2]; 200 ng/ml) | time of highest Tie1 phosphorylation (Tie1 [2]; 200 ng/ml) [min] | concentration giving receptor phosphorylation (Tie1 [2]; HDMVEC, serum starved, 60 min stimulation) [ng/mL] | time of most prominent Tie1 phosphorylation (Tie1 [2]; HDMVEC, 500-1000 ng/ml) [min] | inhibition of tube formation in mouse endothelial cells [3]
E3: human anti-Tie1 antibody from phage Fab library, reformatted as IgG; HC variable SEQ ID NO:114, LC variable SEQ ID NO:116 (antibody, V domains shown, IgG constant regions; Synthetically generated peptide) VH: EVQLLESGGGLVQPGGSLRLSCAASGFTFSMYGMVWVRQAPGKGLEWVSVISPSGGNTGYADSVKGRFTISRDNSKNTLYLQVNSLRAEDTAVYYCARAPRGYSYGYYYWGQGTLVTVSSASTKGPSVFPLAPSSKSTSGG VL: DIQMTQSPLSLSASVGDRVTITCRASQGIGHYLAWYQQKPGKVPKLLIYTASTLQSGVPSRFSGSGSGTDFTLTINSLQPEDVATYYCQQFNSYPHTFGQGTRLDIK | able to immunoprecipitate Tie1 in HUVEC | not in platelets | nor did it immunoprecipitate Tie1 from platelet extracts | up to 1 h | 15 to 30 | 50 to 200 | 5 | 
DX-2210: E3 antibody in which the light chain has been germlined (antibody, V domains shown) VH: EVQLLESGGGLVQPGGSLRLSCAASGFTFSMYGMVWVRQAPGKGLEWVSVISPSGGNTGYADSVKGRFTISRDNSKNTLYLQVNSLRAEDTAVYYCARAPRGYSYGYYYWGQGTLVTVSSASTKGPSVFPLAPSSKSTSGG VL: DIQMTQSPSSLSASVGDRVTITCRASQGIGHYLAWYQQKPGKVPKLLIYTASTLQSGVPSRFSGSGSGTDFTLTISSLQPEDVATYYCQQFNSYPHTFGQGTRLEIK |  |  |  |  |  |  |  | potent inhibitor of tube formation in mouse endothelial cells
